Laboratory results published in patent US20260242735A1 (UNIVERSIT T BASEL, published 2026).

Tests used:
[1] = biological target: human CD33 S131F (human, UniProt P20138 18-364); assay: flow cytometry, transfected cells
[2] = biological target: human CD33 P132S (human, UniProt P20138 18-364); assay: flow cytometry, transfected cells
[3] = biological target: human CD33 P132K (human, UniProt P20138 18-364); assay: flow cytometry, transfected cells
[4] = biological target: human CD33 P132Y (human, UniProt P20138 18-364); assay: flow cytometry, transfected cells
Sequence of human CD33 P132Y (P20138 18-364 P132Y limits assumed): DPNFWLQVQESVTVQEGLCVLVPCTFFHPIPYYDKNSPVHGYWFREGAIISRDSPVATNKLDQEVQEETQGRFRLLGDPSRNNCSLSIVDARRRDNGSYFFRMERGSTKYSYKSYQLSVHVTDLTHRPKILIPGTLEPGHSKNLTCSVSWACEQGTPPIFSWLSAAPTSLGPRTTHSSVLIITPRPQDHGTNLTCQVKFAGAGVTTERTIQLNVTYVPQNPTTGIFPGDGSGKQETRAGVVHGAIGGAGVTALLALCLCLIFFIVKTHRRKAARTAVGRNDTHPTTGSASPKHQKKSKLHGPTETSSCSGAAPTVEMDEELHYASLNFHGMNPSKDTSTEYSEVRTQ

[5] = biological target: human CD33 P132F (human, UniProt P20138 18-364); assay: flow cytometry, transfected cells
Sequence of human CD33 P132F (P20138 18-364 P132F limits assumed): as the sequence (P20138 18-364 P132Y limits assumed) above, with Y115F counted along it

[6] = biological target: human CD33 W22Q (human, UniProt P20138 18-364); assay: flow cytometry, transfected cells
Sequence of human CD33 W22Q (P20138 18-364 W22Q limits assumed): as the sequence (P20138 18-364 P132Y limits assumed) above, with W5Q, Y115P counted along it

[7] = biological target: human CD33 S131K (human, UniProt P20138 18-364); assay: flow cytometry, transfected cells
Sequence of human CD33 S131K (P20138 18-364 S131K limits assumed): as the sequence (P20138 18-364 P132Y limits assumed) above, with S114K, Y115P counted along it

[8] = biological target: human CD33 P132L (human, UniProt P20138 18-364); assay: flow cytometry, transfected cells
Sequence of human CD33 P132L (P20138 18-364 P132L limits assumed): as the sequence (P20138 18-364 P132Y limits assumed) above, with Y115L counted along it

[9] = biological target: human CD33 S131M (human, UniProt P20138 18-364); assay: flow cytometry, transfected cells
Sequence of human CD33 S131M (P20138 18-364 S131M limits assumed): as the sequence (P20138 18-364 P132Y limits assumed) above, with S114M, Y115P counted along it

[10] = biological target: human CD33 N20L (human, UniProt P20138 18-364); assay: flow cytometry, transfected cells
Sequence of human CD33 N20L (P20138 18-364 N20L limits assumed): as the sequence (P20138 18-364 P132Y limits assumed) above, with N3L, Y115P counted along it

[11] = biological target: human CD33 Q24E (human, UniProt P20138 18-364); assay: flow cytometry, transfected cells
Sequence of human CD33 Q24E (P20138 18-364 Q24E limits assumed): as the sequence (P20138 18-364 P132Y limits assumed) above, with Q7E, Y115P counted along it

[12] = biological target: human CD33 F44P (human, UniProt P20138 18-364); assay: flow cytometry, transfected cells
Sequence of human CD33 F44P (P20138 18-364 F44P limits assumed): as the sequence (P20138 18-364 P132Y limits assumed) above, with F27P, Y115P counted along it

[13] = biological target: human CD33 F44D (human, UniProt P20138 18-364); assay: flow cytometry, transfected cells
Sequence of human CD33 F44D (P20138 18-364 F44D limits assumed): as the sequence (P20138 18-364 P132Y limits assumed) above, with F27D, Y115P counted along it

[14] = biological target: human CD33 D18R (human, UniProt P20138 19-364); assay: flow cytometry, transfected cells
Sequence of human CD33 D18R (P20138 18-364 D18R limits assumed): as the sequence (P20138 18-364 P132Y limits assumed) above, with D1R, Y115P counted along it

[15] = biological target: human CD33 P46S (human, UniProt P20138 18-364); assay: flow cytometry, transfected cells
Sequence of human CD33 P46S (P20138 18-364 P46S limits assumed): as the sequence (P20138 18-364 P132Y limits assumed) above, with P29S, Y115P counted along it

[16] = biological target: human CD33 Q24S (human, UniProt P20138 18-364); assay: flow cytometry, transfected cells
Sequence of human CD33 Q24S (P20138 18-364 Q24S limits assumed): as the sequence (P20138 18-364 P132Y limits assumed) above, with Q7S, Y115P counted along it

[17] = biological target: human CD33 N20S (human, UniProt P20138 18-364); assay: flow cytometry, transfected cells
Sequence of human CD33 N20S (P20138 18-364 N20S limits assumed): as the sequence (P20138 18-364 P132Y limits assumed) above, with N3S, Y115P counted along it

[18] = biological target: T1, human CD33 Y129A (human, UniProt P20138 18-364); assay: alanine scan, flow cytometry, HEK293-T;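 also: antibody binding to each alanine-substituted CD33 mutant expressed transiently in HEK293-T, read as fluorescence minus background, mean of duplicates, relative to wild-type CD33 set as 100%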
T1 construct: alanine scan clone, transfected HEK293-T
T1 sequence (P20138 18-364 Y129A limits assumed): as the sequence (P20138 18-364 P132Y limits assumed) above, with Y112A, Y115P counted along it

[19] = biological target: T2, human CD33 L134A (human, UniProt P20138 18-364); assay: alanine scan, flow cytometry, HEK293-T;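 also: antibody binding to each alanine-substituted CD33 mutant expressed transiently in HEK293-T, read as fluorescence minus background, mean of duplicates, relative to wild-type CD33 set as 100%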
T2 construct: alanine scan clone, transfected HEK293-T
T2 sequence (P20138 18-364 L134A limits assumed): as the sequence (P20138 18-364 P132Y limits assumed) above, with Y115P, L117A counted along it

[20] = biological target: human CD33 Y49G (human, UniProt P20138 18-364); assay: flow cytometry, transfected cells
Sequence of human CD33 Y49G (P20138 18-364 Y49G limits assumed): as the sequence (P20138 18-364 P132Y limits assumed) above, with Y32G, Y115P counted along it

[21] = biological target: human CD33 Y49R (human, UniProt P20138 18-364); assay: flow cytometry, transfected cells
Sequence of human CD33 Y49R (P20138 18-364 Y49R limits assumed): as the sequence (P20138 18-364 P132Y limits assumed) above, with Y32R, Y115P counted along it

[22] = biological target: human CD33 Y49H (human, UniProt P20138 18-364); assay: flow cytometry, transfected cells
Sequence of human CD33 Y49H (P20138 18-364 Y49H limits assumed): as the sequence (P20138 18-364 P132Y limits assumed) above, with Y32H, Y115P counted along it

[23] = biological target: human CD33 P48I (human, UniProt P20138 18-364); assay: flow cytometry, transfected cells
Sequence of human CD33 P48I (P20138 18-364 P48I limits assumed): as the sequence (P20138 18-364 P132Y limits assumed) above, with P31I, Y115P counted along it

[24] = biological target: human CD33 K52S (human, UniProt P20138 18-364); assay: flow cytometry, transfected cells
Sequence of human CD33 K52S (P20138 18-364 K52S limits assumed): as the sequence (P20138 18-364 P132Y limits assumed) above, with K35S, Y115P counted along it

[25] = biological target: human CD33 C212A (human, UniProt P20138 18-364); assay: alanine scan, flow cytometry;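 also: HEK293-T cells transiently expressing single-residue alanine mutants of CD33 (alanine swapped to serine), antibody binding read by fluorescence in duplicate, background-subtracted, expressed relative to wild-type CD33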
Sequence of human CD33 C212A (P20138 18-364 C212A limits assumed): as the sequence (P20138 18-364 P132Y limits assumed) above, with Y115P, C195A counted along it

[26] = biological target: human CD33 P48K (human, UniProt P20138 18-364); assay: flow cytometry, transfected cells
Sequence of human CD33 P48K (P20138 18-364 P48K limits assumed): as the sequence (P20138 18-364 P132Y limits assumed) above, with P31K, Y115P counted along it

[27] = biological target: human CD33 P48L (human, UniProt P20138 18-364); assay: flow cytometry, transfected cells
Sequence of human CD33 P48L (P20138 18-364 P48L limits assumed): as the sequence (P20138 18-364 P132Y limits assumed) above, with P31L, Y115P counted along it

[28] = biological target: human CD33 Y49T (human, UniProt P20138 18-364); assay: flow cytometry, transfected cells
Sequence of human CD33 Y49T (P20138 18-364 Y49T limits assumed): as the sequence (P20138 18-364 P132Y limits assumed) above, with Y32T, Y115P counted along it

Sequence of human CD33 P132S (P20138 18-364 P132S limits assumed): as the sequence (P20138 18-364 P132Y limits assumed) above, with Y115S counted along it
Sequence of human CD33 S131F (P20138 18-364 S131F limits assumed): as the sequence (P20138 18-364 P132Y limits assumed) above, with S114F, Y115P counted along it
Sequence of human CD33 P132K (P20138 18-364 P132K limits assumed): as the sequence (P20138 18-364 P132Y limits assumed) above, with Y115K counted along it

B1: Refmab #6 (antibody, human IgG1, V domains shown)
VH: QVQLQQPGAEVVKPGASVKMSCKASGYTFTSYYIHWIKQTPGQGLEWVGVIYPGNDDISYNQKFQGKATLTADKSSTTAYMQLSSLTSEDSAVYYCAREVRLRYFDVWGQGTTVTVSS
VL: EIVLTQSPGSLAVSPGERVTMSCKSSQSVFFSSSQKNYLAWYQQIPGQSPRLLIYWASTRESGVPDRFTGSGSGTDFTLTISSVQPEDLAIYYCHQYLSSRTFGQGTKLEIK
Question: Does B1 bind [1]?
Answer: no binding (tested: below 20%)

Question: Does B1 bind [2]?
Answer: no binding (tested: below 20%)

Question: Does B1 bind [3]?
Answer: no binding (tested: below 20%)

Question: Does B1 bind [4]?
Answer: no binding (tested: below 20%)

Question: Does B1 bind [5]?
Answer: no binding (tested: below 20%)

Question: Does B1 bind [6]?
Answer: no binding (tested: below 20%)

Question: Does B1 bind [7]?
Answer: no binding (tested: below 20%)

Question: Does B1 bind [8]?
Answer: no binding (tested: below 20%)

Question: Does B1 bind [9]?
Answer: no binding (tested: below 20%)

B2: Refmab #3 (antibody, human IgG1, V domains shown)
VH: QVQLVQSGAEVKKPGSSVKVSCKASGYTFTDYNMHWVRQAPGQGLEWIGYIYPYNGGTGYNQKFKSKATITADESTNTAYMELSSLRSEDTAVYYCARGRPAMDYWGQGTLVTVSS
VL: DIQMTQSPSSLSASVGDRVTITCRASESVDNYGISFMNWFQQKPGKAPKLLIYAASNQGSGVPSRFSGSGSGTDFTLTISSLQPDDFATYYCQQSKEVPWTFGQGTKVEIK
Question: Does B2 bind [10]?
Answer: no binding (tested: below 20%)

Question: Does B2 bind [11]?
Answer: no binding (tested: below 20%)

Question: Does B2 bind [12]?
Answer: no binding (tested: below 20%)

Question: Does B2 bind [13]?
Answer: no binding (tested: below 20%)

Question: Does B2 bind [14]?
Answer: no binding (tested: below 20%)

Question: Does B2 bind [15]?
Answer: no binding (tested: below 20%)

Question: Does B2 bind [16]?
Answer: no binding (tested: below 20%)

Question: Does B2 bind [17]?
Answer: no binding (tested: below 20%)

B3: Refmab #5 (antibody, V domains shown)
VH: QVQLVQSGAEVKKPGASVKVSCKASGYTFTNYDINWVRQAPGQGLEWIGWIYPGDGSTKYNEKFKAKATLTADTSTSTAYMELRSLRSDDTAVYYCASGYEDAMDYWGQGTTVTVSS
VL: DIQMTQSPSSLSASVGDRVTINCKASQDINSYLSWFQQKPGKAPKTLIYRANRLVDGVPSRFSGSGSGQDYTLTISSLQPEDFATYYCLQYDEFPLTFGGGTKVEIK
notes: The alanine scan used IgG or Fab
Question: B3 was tested. Which “Mean % WT Binding” value [18] did it give?
Answer: 196 % WT binding

Question: What about the “Mean % WT Binding” value [19] of the same binder?
Answer: 95.9 % WT binding

B4: Refmab #5 (antibody, human IgG1, V domains shown)
VH: B3 VH
VL: B3 VL
Question: Does B4 bind [20]?
Answer: no binding (tested: below 20%)

Question: Does B4 bind [21]?
Answer: no binding (tested: below 20%)

Question: Does B4 bind [22]?
Answer: no binding (tested: below 20%)

Question: Does B4 bind [23]?
Answer: no binding (tested: below 20%)

Question: Does B4 bind [24]?
Answer: no binding (tested: below 20%)

B5: Refmab #5 (antibody, V domains shown)
VH: B3 VH
VL: B3 VL
notes: Full-length format is human IgG1 Fc silent (PG-LALA); also made as Fab; The alanine scan used IgG or Fab
Question: For B5, which “Mean % WT Binding” value [25] is on record?
Answer: 28.4 % WT binding

B6: Refmab #4 (antibody, human IgG1, V domains shown)
VH: QVQLVQSGAEVKKPGESVKVSCKASGYTFTNYGMNWVKQAPGQGLEWMGWINTYTGEPTYADKFQGRVTMTTDTSTSTAYMEIRNLGGDDTAVYYCARWSWSDGYYVYFDYWGQGTSVTVSS
VL: DIVMTQSPDSLTVSLGERTTINCKSSQSVLDSSTNKNSLAWYQQKPGQPPKLLLSWASTRESGIPDRFSGSGSGTDFTLTIDSPQPEDSATYYCQQSAHFPITFGQGTRLEIK
Question: Does B6 bind [26]?
Answer: no binding (tested: below 20%)

Question: Does B6 bind [27]?
Answer: no binding (tested: below 20%)

Question: Does B6 bind [28]?
Answer: no binding (tested: below 20%)
